For ten substances, response (AUC (2G12 normalized)) results are on record in paper PMC8610599.

What all share (test): BLI
The target in one test is VRC01. As to conditions: parent: est. 0.38; read off a plot.
Another test deals with PGT151. As to conditions: parent: est. 1.6; read off a plot.
The target in another test is PGT121. As to conditions: parent: est. 0.20; read off a plot.
In a further test the target is PGDM1400. As to conditions: parent: est. 0.40; read off a plot.

Turning to LAI SOSIP.664 trimer F53V, the response (AUC (2G12 normalized)) in the test with VRC01 is 0.45; in the test with PGT151, 1.5; with PGT121, 0.18; with PGDM1400 it was 0.33.

For LAI SOSIP.664 trimer F53V; Q567R, the response (AUC (2G12 normalized)) worked out at 0.4 with VRC01, 1.5 with PGT151, 0.22 in the test with PGT121 and 0.35 with PGDM1400.

For LAI SOSIP.664 trimer Q567R, the response (AUC (2G12 normalized)) was 0.42 with VRC01, 1.6 with PGT151, 0.22 in the test with PGT121 and 0.3 with PGDM1400.

As for LAI SOSIP.664 trimer Q590A, the response (AUC (2G12 normalized)) with VRC01 is 0.62; with PGT151, 1.5; with PGT121, 0.18; with PGDM1400, 0.35.

For the substance LAI SOSIP.664 trimer Q590A; S164G, the response (AUC (2G12 normalized)) came to 0.7 with VRC01, 1.4 with PGT151, 0.17 with PGT121 and 0.2 with PGDM1400.

In the case of LAI SOSIP.664 trimer R585F, the response (AUC (2G12 normalized)) amounted to 0.4 in the test with VRC01, 1.5 in the test with PGT151, 0.15 with PGT121 and 0.35 with PGDM1400.

As for LAI SOSIP.664 trimer R585F; Q567R, the response (AUC (2G12 normalized)) with VRC01 turned out to be 0.4; with PGT151, 1.5; in the test with PGT121, 0.17; with PGDM1400, 0.35.

As for LAI SOSIP.664 trimer S164G, the response (AUC (2G12 normalized)) in the test with VRC01 was 0.47; with PGT151 it was 1.5; with PGT121 it was 0.22; in the test with PGDM1400, 0.25.

On to LAI SOSIP.664 trimer Y586W, for which the response (AUC (2G12 normalized)) with VRC01 amounted to 0.88; with PGT151 it was 1.3; in the test with PGT121, 0.18; with PGDM1400, 0.42.

As for LAI SOSIP.664 trimer Y586W; Q567R, the response (AUC (2G12 normalized)) in the test with VRC01 is 0.55; in the test with PGT151, 1.5; with PGT121, 0.2; in the test with PGDM1400, 0.3.
